Measured values taken from the supplement of paper PMC7877785.
± gives the uncertainty stated by the source.

Assay: self-splicing fitness, log relative to wild type (ln ratio); higher = more splicing; Tetrahymena group I intron in knt gene, E. coli kanamycin selection, DiMSum; sequences stand for … in CUCUCU…GGAGGGAAAAGUUAUCAGGCAUGCACCUGGUAGCUAGUCUUUAAACCAAUAGAUUGCAUCGGUUUAAAAGGCAAGACCGUCAAAUUGCGGGAAAGGGGUCAACAGCCGUUCAGUACCAAGUCUCAGGGGAAACUUUGAGAUGGCCUUGCAAAGGGUAUGGUAAUAAGCUGACGGACAUGGUCCUAACCACGCAGCCAAGUCCUAAGUCAACAGAUCUUCUGUUGAUAUGGAUGCAGUUCACAGACUAAAUGUCGGUCGGGGAAGAUGUAUUCUUCUCAUAAGAUAUAGUCGGACCUCUCCUUAAUGGGAGCUAGCGGAUGAAGUGAUGCAACACUGGAGCCGCUGGGAACUAAUUUGUAUGCGAAAGUAUAUUGAUUAGUUUUGGAGUACUCGUGGUCG
Summary of the method: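 Pooled colonies went to amplicon sequencing on an Illumina HiSeq 2500 after six replicate transformations. The plates were LB agar with 100 μg/mL carbenicillin, 50 μM IPTG and 0.2% rhamnose, with or without 25 μg/mL kanamycin, incubated overnight at 37°C or 30°C. The E. coli BL21(DE3) library had all eight P1ex-region intron nucleotides randomised, the intron placed in the knt kanamycin-resistance gene on pET-22b(+). DiMSum fitness is the error-weighted combination of replicate fold changes, kanamycin against none, normalised to wild type.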

Row | Sequence | self-splicing fitness (ln) (30 °C) | self-splicing fitness (ln) (37 °C)
1 | AAAAAGCAAUAUUACGAAAG | -2.31 ± 0.098 | -1.03 ± 0.12
2 | AAAAAGCAAUAUUACGAUCA | -0.00996 ± 0.084 | -0.0134 ± 0.094
3 | AAAAAGCAAUAUUACGCCUG | -0.823 ± 0.09 | -0.000429 ± 0.12
4 | AAAAAGCAAUAUUACGCGAG | -0.943 ± 0.085 | -1.06 ± 0.11
5 | AAAAAGCAAUAUUACGCGGG | -2.76 ± 0.16 | -1.93 ± 0.15
6 | AAAAAGCAAUAUUACGCGUC | -2.31 ± 0.16 | -1.72 ± 0.16
7 | AAAAAGCAAUAUUACGCUAA | -2.36 ± 0.15 | -1.35 ± 0.13
8 | AAAAAGCAAUAUUACGCUCG | -0.161 ± 0.11 | 0.0542 ± 0.14
9 | AAAAAGCAAUAUUACGCUUG | -1.69 ± 0.087 | -0.744 ± 0.1
10 | AAAAAGCAAUAUUACGGACA | -0.0577 ± 0.11 | -0.0474 ± 0.12
11 | AAAAAGCAAUAUUACGGAGA | -3.49 ± 0.19 | -3.11 ± 0.18
12 | AAAAAGCAAUAUUACGGGCA | -0.543 ± 0.081 | -0.103 ± 0.088
13 | AAAAAGCAAUAUUACGGGGA | -1.74 ± 0.13 | -1.8 ± 0.13
14 | AAAAAGCAAUAUUACGUCAA | -1.8 ± 0.08 | -0.836 ± 0.073
15 | AAAAAGCAAUAUUACGUGAA | -1.24 ± 0.078 | -0.618 ± 0.11
16 | AAAAAGCAAUAUUACGUUCC | -1.3 ± 0.098 | -0.521 ± 0.14
17 | AAAAAGCAAUAUUACGUUGA | -2.63 ± 0.11 | -1.48 ± 0.12
18 | AAACAGCAAUAUUACGAACC | -2.56 ± 0.18 | -0.124 ± 0.17
19 | AAACAGCAAUAUUACGAAGC | -3.98 ± 0.2 | -2.75 ± 0.18
20 | AAACAGCAAUAUUACGAAGG | -3.85 ± 0.13 | -2.2 ± 0.15
21 | AAACAGCAAUAUUACGACCG | -1.6 ± 0.14 | 0.0387 ± 0.18
22 | AAACAGCAAUAUUACGAGAG | -2.76 ± 0.18 | -2.91 ± 0.16
23 | AAACAGCAAUAUUACGAGCC | -2.55 ± 0.2 | -1.75 ± 0.3
24 | AAACAGCAAUAUUACGAGCU | -1.25 ± 0.068 | -0.704 ± 0.086

Row | Sequence | self-splicing fitness (ln) (30 °C) | self-splicing fitness (ln) (37 °C)
25 | AAACAGCAAUAUUACGAGGU | -4.6 ± 0.26 | -2.53 ± 0.15
26 | AAACAGCAAUAUUACGAGUU | -1.94 ± 0.068 | -0.482 ± 0.075
27 | AAACAGCAAUAUUACGAUCC | -1.8 ± 0.088 | -0.41 ± 0.11
28 | AAACAGCAAUAUUACGCAUC | -2.82 ± 0.13 | -2.07 ± 0.11
29 | AAACAGCAAUAUUACGCCGG | -2.36 ± 0.12 | -1.67 ± 0.12
30 | AAACAGCAAUAUUACGCCUU | -1.66 ± 0.093 | -0.238 ± 0.1
31 | AAACAGCAAUAUUACGCGCU | -1.03 ± 0.072 | -0.289 ± 0.087
32 | AAACAGCAAUAUUACGCGGU | -3.32 ± 0.23 | -2.18 ± 0.17
33 | AAACAGCAAUAUUACGGAAU | -3.81 ± 0.16 | -2.4 ± 0.14
34 | AAACAGCAAUAUUACGGAUA | -2.99 ± 0.15 | -1.92 ± 0.14
35 | AAACAGCAAUAUUACGGCGG | -2.4 ± 0.088 | -1.35 ± 0.092
36 | AAACAGCAAUAUUACGGGCA | -1.86 ± 0.1 | -1.24 ± 0.1
37 | AAACAGCAAUAUUACGGGCG | -2.12 ± 0.09 | -1.41 ± 0.12
38 | AAACAGCAAUAUUACGGGGG | -3.28 ± 0.22 | -2.52 ± 0.19
39 | AAACAGCAAUAUUACGGUUC | -2.65 ± 0.078 | -2.6 ± 0.12
40 | AAACAGCAAUAUUACGUAAG | -1.23 ± 0.044 | -0.526 ± 0.065
41 | AAACAGCAAUAUUACGUAGA | -2.31 ± 0.1 | -0.368 ± 0.092
42 | AAACAGCAAUAUUACGUGAU | -2.18 ± 0.053 | -1.13 ± 0.072
43 | AAACAGCAAUAUUACGUGCA | -1.19 ± 0.068 | -0.303 ± 0.074
44 | AAACAGCAAUAUUACGUUAC | -3.19 ± 0.16 | -2.56 ± 0.26
45 | AAACAGCAAUAUUACGUUCG | -1.23 ± 0.051 | -0.286 ± 0.068
46 | AAAGAGCAAUAUUACGAAGA | -4.23 ± 0.46 | -1.64 ± 0.21
47 | AAAGAGCAAUAUUACGAAGC | -1.67 ± 0.21 | -2.04 ± 0.47
48 | AAAGAGCAAUAUUACGACAU | -1.897 ± 0.015 | -1.26 ± 0.034

Row | Sequence | self-splicing fitness (ln) (30 °C) | self-splicing fitness (ln) (37 °C)
49 | AAAGAGCAAUAUUACGACGA | -2.27 ± 0.23 | -2.57 ± 0.25
50 | AAAGAGCAAUAUUACGAGCC | -2.96 ± 0.35 | –
51 | AAAGAGCAAUAUUACGAUUC | -2.3 ± 0.14 | -1.61 ± 0.14
52 | AAAGAGCAAUAUUACGAUUG | -4.1 ± 0.24 | -2.29 ± 0.21
53 | AAAGAGCAAUAUUACGCAUC | -3.52 ± 0.35 | -2.24 ± 0.35
54 | AAAGAGCAAUAUUACGCGGC | – | -3.08 ± 0.4
55 | AAAGAGCAAUAUUACGCGGU | -3.49 ± 0.18 | -1.49 ± 0.16
56 | AAAGAGCAAUAUUACGCGUA | -1.96 ± 0.18 | -1.61 ± 0.16
57 | AAAGAGCAAUAUUACGCUAA | – | -1.52 ± 0.28
58 | AAAGAGCAAUAUUACGCUGC | -3.15 ± 0.14 | -2.84 ± 0.21
59 | AAAGAGCAAUAUUACGGAUG | -4.57 ± 0.42 | -2.06 ± 0.23
60 | AAAGAGCAAUAUUACGGCCA | -3.01 ± 0.31 | -2.5 ± 0.29
61 | AAAGAGCAAUAUUACGGCUC | -2.64 ± 0.21 | -1.67 ± 0.21
62 | AAAGAGCAAUAUUACGGGCG | -2.3 ± 0.14 | -3.1 ± 0.47
63 | AAAGAGCAAUAUUACGGUUG | -3.84 ± 0.27 | -2.14 ± 0.25
64 | AAAGAGCAAUAUUACGUGAU | -2.95 ± 0.1 | -1.81 ± 0.12
65 | AAAGAGCAAUAUUACGUUGA | -2.75 ± 0.21 | -2.28 ± 0.26
66 | AAAUAGCAAUAUUACGACUU | 0.559 ± 0.099 | 0.387 ± 0.13
67 | AAAUAGCAAUAUUACGAGAA | – | -0.893 ± 0.23
68 | AAAUAGCAAUAUUACGAUUC | -0.544 ± 0.066 | -0.733 ± 0.1
69 | AAAUAGCAAUAUUACGCCGG | -1.6 ± 0.13 | -0.713 ± 0.15
70 | AAAUAGCAAUAUUACGCCUU | -0.206 ± 0.073 | 0.557 ± 0.1
71 | AAAUAGCAAUAUUACGCGUC | -2.19 ± 0.16 | -0.755 ± 0.19
72 | AAAUAGCAAUAUUACGCUAA | -2.19 ± 0.21 | -1.52 ± 0.2

Row | Sequence | self-splicing fitness (ln) (30 °C) | self-splicing fitness (ln) (37 °C)
73 | AAAUAGCAAUAUUACGCUCC | -1.48 ± 0.31 | 0.174 ± 0.42
74 | AAAUAGCAAUAUUACGCUCU | -0.111 ± 0.075 | -0.0401 ± 0.091
75 | AAAUAGCAAUAUUACGGACG | -0.725 ± 0.069 | -0.343 ± 0.096
76 | AAAUAGCAAUAUUACGGACU | 0.0218 ± 0.068 | 0.206 ± 0.091
77 | AAAUAGCAAUAUUACGGCUG | -0.833 ± 0.15 | -0.0574 ± 0.18
78 | AAAUAGCAAUAUUACGUACA | -1.23 ± 0.071 | -0.523 ± 0.092
79 | AAAUAGCAAUAUUACGUGUC | -3.4 ± 0.19 | -3.29 ± 0.25
80 | AAAUAGCAAUAUUACGUUGA | -3.3 ± 0.41 | -0.771 ± 0.16
81 | AAAUAGCAAUAUUACGUUUA | -1.85 ± 0.15 | -1.03 ± 0.13
82 | AACAAGCAAUAUUACGAACC | -1.27 ± 0.12 | 0.0146 ± 0.19
83 | AACAAGCAAUAUUACGAAGG | -2.77 ± 0.19 | -1.95 ± 0.24
84 | AACAAGCAAUAUUACGAGAG | -3.79 ± 0.22 | -2.24 ± 0.14
85 | AACAAGCAAUAUUACGAGGG | -3 ± 0.11 | -1.35 ± 0.15
86 | AACAAGCAAUAUUACGAUCU | -0.25 ± 0.062 | -0.072 ± 0.08
87 | AACAAGCAAUAUUACGCACG | -1.31 ± 0.18 | -0.33 ± 0.18
88 | AACAAGCAAUAUUACGCAGG | -2.67 ± 0.11 | -1.49 ± 0.098
89 | AACAAGCAAUAUUACGCCAA | -2.32 ± 0.14 | -2.55 ± 0.16
90 | AACAAGCAAUAUUACGCCAG | -2.62 ± 0.15 | -1.24 ± 0.15
91 | AACAAGCAAUAUUACGCCCA | -0.0653 ± 0.094 | -0.00342 ± 0.11
92 | AACAAGCAAUAUUACGCCUG | -0.373 ± 0.094 | -0.0232 ± 0.095
93 | AACAAGCAAUAUUACGCCUU | -0.742 ± 0.11 | -0.314 ± 0.12
94 | AACAAGCAAUAUUACGGACG | -1.3 ± 0.061 | -0.887 ± 0.086
95 | AACAAGCAAUAUUACGGAUC | -1.6 ± 0.093 | -0.302 ± 0.11
96 | AACAAGCAAUAUUACGGCGG | -0.998 ± 0.078 | -0.826 ± 0.1
